Changes are numbered by the printed parent chain. Numbers in names are those of the source.

The source of these data is publication PMC4245140, “Towards Engineering Hormone-Binding Globulins as Drug Delivery Agents” (PLoS ONE, 2014).

B1: TBG: Thyroxine binding globulin, hormone-carrying serpin, comparator (protein, UniProt P05543 21-415, looked up)
Thyroxine-binding globulin: ASPEGKVTACHSSQPNATLYKMSSINADFAFNLYRRFTVETPDKNIFFSPVSISAALVMLSFGACCSTQTEIVETLGFNLTDTPMVEIQHGFQHLICSLNFPKKELELQIGNALFIGKHLKPLAKFLNDVKTLYETEVFSTDFSNISAAKQEINSHVEMQTKGKVVGLIQDLKPNTIMVLVNYIHFKAQWANPFDPSKTEDSSSFLIDKTTTVQVPMMHQMEQYYHLVDMELNCTVLQMDYSKNALALFVLPKEGQMESVEAAMSSKTLKKWNRLLQKGWVDLFVPKFSISATYDLGATLLKMGIQHAYSENADFSGLTEDNGLKLSNAAHKAVLHIGEKGTEAAAVPEVELSDQPENTFLHPIIQIDRSFMLLILERSTRSILFLGKVVNPTEA
B2: P1-Arg + S100C-V236C: Human CBG with Ser100Cys/Val236Cys disulphide mutations on T349R background (PDB 4C41, cleaved) (protein, UniProt P08185 23-405, looked up, variant S100C V236C T349R)
Corticosteroid-binding …: MDPNAAYVNMSNHHRGLASANVDFAFSLYKHLVALSPKKNIFISPVSISMALAMLSLGTCGHTRAQLLQGLGFNLTERSETEIHQGFQHLHQLFAKSDTCLEMTMGNALFLDGSLELLESFSADIKHYYESEVLAMNFQDWATASRQINSYVKNKTQGKIVDLFSGLDSPAILVLVNYIFFKGTWTQPFDLASTREENFYVDETTVVKVPMMLQSSTISYLHDSELPCQLVQMNYCGNGTVFFILPDKGKMNTVIAALSRDTINRWSAGLTSSQVDLYIPKVTISGVYDLGDVLEEMGIADLFTNQANFSRITQDAQLKSSKVVHKAVLQLNEEGVDTAGSTGVTLNLRSKPIILRFNQPFIIMIFDHFTWSSLFLARVMNPV
B3: P1-Arg + V336L: Human CBG with P14 Val336Leu on T349R (P1 Arg) background, thrombin-cleavable (protein, UniProt P08185 23-405, looked up, variant V336L T349R)
Corticosteroid-binding …: B2 Corticosteroid-binding … with C100S, C236V, V336L
B4: P1-Arg + S100C-V236C-V336L: Human CBG combining S100C-V236C disulphide and V336L on T349R background (protein, UniProt P08185 23-405, looked up, variant S100C V236C V336L T349R)
Corticosteroid-binding …: B2 Corticosteroid-binding … with V336L
B5: P1-Arg + V336I: Human CBG with P14 Val336Ile on T349R (P1 Arg) background, thrombin-cleavable (protein, UniProt P08185 23-405, looked up, variant V336I T349R)
Corticosteroid-binding …: B2 Corticosteroid-binding … with C100S, C236V, V336I
B6: P1-Arg + S100C-V236C-V336I: Human CBG combining S100C-V236C disulphide and V336I on T349R background (protein, UniProt P08185 23-405, looked up, variant S100C V236C V336I T349R)
Corticosteroid-binding …: B2 Corticosteroid-binding … with V336I

The first assay is described as follows: Fluorimetric titration of L-T4-thyroxine-6-carboxyfluorescein with engineered CBG. The class given is binding. The settings on record: 25°C. The procedure: (§1) Fluorescence spectroscopy was used to study the CBG-ligand interactions. Experiments were performed on an LS55 120V fluorescence spectrometer (Perkin Elmer), and the data were read and recorded using their proprietary FL WinLab software. For binding studies of CBG with cortisol, the excitation wavelength was set at 280 nm and the emission was detected at 350 nm, with a 315 nm cut-off filter used to prevent the excitation laser from leaching into the emission channel. For the binding studies of engineered CBG with L-T4-thyroxine-6-carboxyfluorescein, the excitation wavelength was set at 495 nm and emission was recorded at 520 nm whilst applying a 515 nm cut-off filter.
L-T4-thyroxine-6-carboxyfluorescein was previously synthesised and purified as a 1.09 µM solution with acetonitrile as its solvent. This was diluted into a 5 nM solution with a buffer containing 10 mM Tris-HCl, pH 7.4, 150 mM NaCl, 1 mM EDTA, 0.1% v/v PEG 8000. Aliquots of the engineered CBG were titrated into 800 µl of this solution, and increments in fluorescence signal were monitored.
(§2) In both cases, the data were fitted using Prism 5 (GraphPad Software) to the following equation to obtain the dissociation constant, Kd: [drawing 2] (2) where ΔF is the fluorescence change, ΔFM is the maximum change in fluorescence signal, [L]t is the total concentration of ligand added and [E]t is the total protein concentration.
Consider B1, for which binding was characterised by a dissociation constant (Kd) of 0.73 nM.

The next assay is described as follows: Fluorimetric titration (intrinsic fluorescence quenching) of CBG with cortisol. The class given is binding. As to conditions: 37°C, reducing agent TCEP present. The protocol: CBG is known to bind cortisol with a one-to-one stoichiometry, [19]. Therefore, the dissociation constant, which is a measure of binding affinity, is given by the following equation: [drawing 1] (1) where [E]f is the concentration of free CBG, [L]f is the concentration of free ligand, and [E·L] is the concentration of the CBG-ligand complex.
as §1
The cortisol stock solution was prepared by dissolving lyophilised cortisol (Sigma Aldrich) in 80% ethanol to make a 500 µM solution, which was then diluted with water to make solutions of 20, 40 and 80 µM, with water being used as a negative control. Aliquots of the ligand solutions were then titrated into 800 µl of a 200 nM solution of CBG made by diluting the protein stock with a buffer containing 10 mM Tris-HCl, pH 7.4, 150 mM NaCl, 1 mM EDTA, 0.1% v/v PEG 8000, and the decrease in fluorescence due to quenching was measured.
as §2
For B2, the “Change in cortisol binding affinity after reactive loop cleavage in presence of TCEP” value was “very similar to that of wild-type CBG”.

Staying with this assay, now noted: intact S-state; physiological temperature (37°C); read-out: Kd for cortisol, S (uncleaved) conformation.
B3: the Kd (as a rule, the equilibrium constant for the complex coming apart) is 295 ± 44 nM.
Still for that read-out and setting: then B4, with 252 ± 17 nM; and B5, with 326 ± 46 nM.
The same measure, in the same setting: then B6, with 297 ± 40 nM; and B2, with 278 ± 64 nM.

The assay is the same for the next values; noted with them: physiological temperature (37°C); disulphide mutants in absence of TCEP.
Regarding B3, the “Fold change in Kd (cortisol) on reactive centre loop cleavage, S to R” value is given as 8.2 fold.
On the same count and under the same terms, then B4, with 6.4 fold; and B5, with 10 fold; and B6, with 7.6 fold.
Still for that read-out and setting: the value for B2 was 6.5 fold.

The same assay, now with this note: reactive centre loop-cleaved R-state; physiological temperature (37°C); read-out: Kd for cortisol, R (cleaved) conformation.
With B3, the equilibrium dissociation constant (Kd) amounted to 2420 ± 200 nM.
The same measure, in the same setting: then B4, with 1600 ± 320 nM.
On the same count and under the same terms, the value for B5 was 3420 ± 440 nM; that for B6 was 2260 ± 320 nM; that for B2 was 1800 ± 49 nM.
